Measured values as given in patent publication US8703698B2, “Compositions and methods for treating atherosclerosis” (The University of Chicago, priority 2003, dated 2014).

What was measured:
[1] = test system: [3H]-cholesterol-loaded J774 macrophages; assay: In vivo cholesterol efflux to plasma in mice injected with [3H]-cholesterol-loaded J774 macrophages; settings: for [3H]-cholesterol efflux as plasma radioactivity (dpm) (FIG. 1): intravenous liposomes containing 0.5 μM peptide, 24 hours after macrophages
Method: In these experiments, in vivo cholesterol export was determined in mice injected with J774 macrophages cholesterol-loaded with RBC membranes and [^3H]-cholesterol. Two hundred thousand macrophages in 100:1 PBS were injected into each mouse through the tail vein. At various time points thereafter, approximately 25:1 of blood were collected from the tail vein of each animal into heparinized capillary tubes. The tubes were then centrifuged for 5 minutes in an Adams Autocrit Centrifuge to separate red blood cells from plasma. Cholesterol efflux was determined by measuring the appearance of [^3H]-cholesterol in plasma by scintillation spectrometry. To study whether export of cholesterol from J774 cells to plasma was influenced by non-liposome formulated D-27mer peptide (SEQ ID NO:10), 24 hours after injection of cholesterol-loaded J774 macrophages into mice, the same animals received, by intravenous injection, 30 μg, 60 μg, 150 μg, 225 μg, 300 μg or 600 μg of D-27mer. All these amounts of D-peptides were dissolved in 100:l of phosphate buffered saline and injected through the tail vein of each animal.
Additional in vivo studies have also been conducted wherein mice were first injected intravenously with [^3H]cholesterol-laden macrophages and then injected 24 hours later with liposomes containing 0.5 μM of synthetic peptides corresponding to amino acid residues 1-20, 21-50, 51-80 or 74-103 of murine SAA2.1. Results from this study are depicted in FIG. 1. At time points indicated in the graph of FIG. 1, approximately 25 μl of blood were collected from the tail vein of each animal. The blood samples were centrifuged to separate the red blood cells from the plasma and the [^3H]-cholesterol in plasma was determined by scintillation counting. Results are mean±SEM of four determinations.
To determine cholesterol export in vivo, J774 macrophages were cholesterol-loaded with red blood cell membranes and [^3H]-cholesterol as described above. Cells were washed four times with PBS/BSA and then detached from the culture dishes. Five million cells in 200 μl DMEM were injected into control mice or inflamed mice through the tail vein. At various time points, approximately 25 μl of blood were collected from the tail vein of each animal into heparinized capillary tubes and then centrifuged for 5 minutes in an Adams Autocrit Centrifuge to separate red blood cells from plasma. Cholesterol efflux was determined by measuring the appearance of [^3H]-cholesterol in plasma by scintillation spectrometry.
J774 cells cultured in 6-well plates were enriched with cholesterol by incubating with red blood cell (RBC) membrane fragments (175:g as cholesterol) that had been previously labeled with 0.5:Ci/ml [^3H]-cholesterol at 37° C. for 24 hours in 0.2% bovine serum albumin (BSA). After loading with the labelled RBC membrane for 6 hours, cells were then washed with phosphate-buffered saline/BSA (PBS/BSA) three times followed by an 18 hour equilibration period during which monolayers were exposed to DMEM/BSA. To determine cholesterol export in vivo, J774 macrophages were cholesterol-loaded with RBC membranes and [^3H]-cholesterol as described previously above. Cells were washed four times with PBS/BSA and then detached from the culture dishes. Two hundred thousand cells in 100:l PBS were injected into mice through the tail vein. At various time points thereafter, approximately 25:l of blood were collected from the tail vein of each animal into heparinized capillary tubes. These tubes were then centrifuged for 5 minutes in an Adams Autocrit Centrifuge to separate red blood cells from plasma. Cholesterol efflux was determined by measuring the appearance of [^3H]-cholesterol in plasma by scintillation spectrometry. […]

[2] = biological target: T1, acyl CoA:cholesterol acyl transferase (Mus musculus, UniProt Q61263); assay: Incorporation of [14C]oleate into cholesteryl ester in cholesterol-laden macrophages (ACAT activity); assay type: cell-based, murine; settings: for relative acyl CoA:cholesterol acyl transferase activity: liposomes containing 0.5 μM synthetic peptide, 6 hour incubation, cholesterol-laden murine cells
T1 construct: host or cells: J774 mouse macrophages, cholesterol-loaded
T1 sequence (Q61263 1-540): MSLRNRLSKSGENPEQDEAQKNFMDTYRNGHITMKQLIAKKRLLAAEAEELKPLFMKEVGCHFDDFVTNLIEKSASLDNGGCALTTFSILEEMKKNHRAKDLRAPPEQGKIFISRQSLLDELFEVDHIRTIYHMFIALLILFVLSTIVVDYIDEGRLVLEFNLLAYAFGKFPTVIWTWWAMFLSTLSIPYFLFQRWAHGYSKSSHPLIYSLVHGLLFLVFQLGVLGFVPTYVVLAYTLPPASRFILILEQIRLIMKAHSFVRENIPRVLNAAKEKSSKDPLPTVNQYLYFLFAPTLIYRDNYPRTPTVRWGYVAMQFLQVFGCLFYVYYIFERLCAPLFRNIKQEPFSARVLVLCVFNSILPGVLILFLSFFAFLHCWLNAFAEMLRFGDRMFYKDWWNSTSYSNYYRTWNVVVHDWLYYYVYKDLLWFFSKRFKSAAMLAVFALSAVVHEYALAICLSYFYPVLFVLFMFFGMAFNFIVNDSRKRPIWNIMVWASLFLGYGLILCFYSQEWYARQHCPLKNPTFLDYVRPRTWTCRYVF

Row | Molecule | [3H]-cholesterol efflux as plasma radioactivity (dpm) (FIG. 1) [1] | relative acyl CoA:cholesterol acyl transferase activity [2] | cholesterol release from macrophages pretreated with protein liposomes and injected into un-inflamed mice ([1]; cholesterol-loaded macrophages pretreated with liposomes, injected intravenously) | radiolabeled cholesterol exported in the plasma (FIG. 15) ([1]; non-liposome formulated, in 100 μl PBS, intravenous, 15 μg/mouse peptide or 75 μg/mouse full length protein) | acyl CoA:cholesterol acyl transferase activity in intact cholesterol-laden macrophages ([2]; lipoproteins or protein liposomes, tissue culture)
1 | DTIADQEANRHGRSGKDPNYYRPPGLPDKY [SEQ ID NO:4, synthetic peptide, residues 74-103 of murine SAA2.1] | dramatically increased | no significant effect | – | – | –
2 | GFFSFVHEAFQGAGDMWRAY [SEQ ID NO:1, synthetic peptide, residues 1-20 of murine SAA2.1] | dramatically increased | two-fold decrease | – | – | –
3 | GFFSFVHEAFQGAGDMWRAYTDMKEANWKNSDKYFHARGNYDAAQRGPGGVWAAEKISD GREAFQEFFGRGHEDTIADQEANRHGRSGKDPNYYRPPGLPDKY (protein, listed as Mus musculis, full length murine serum amyloid A isoform 2.1 purified from acute phase plasma) GFFSFVHEAFQGAGDMWRAYTDMKEANWKNSDKYFHARGNYDAAQRGPGGVWAAEKISDGREAFQEFFGRGHEDTIADQEANRHGRSGKDPNYYRPPGLPDKY | – | – | recapitulated the major cholesterol releasing effect | exceeded the increase observed following administration of the D-27mer peptide | marked reduction of acyl CoA:cholesterol acyl transferase activity
